This is an account of results in US20230147657A1 (INSERM INSTITUT NATIONAL DE LA SANT ET DE LA RECHERCHE M …, published 2023).

The target of assay [1] is T1, human CD45RC (human, UniProt P08575 26-1306).
T1 construct: Native protein on human blood leukocytes / PBMC / T cells of healthy volunteers; also called hCD45RC
T1 sequence: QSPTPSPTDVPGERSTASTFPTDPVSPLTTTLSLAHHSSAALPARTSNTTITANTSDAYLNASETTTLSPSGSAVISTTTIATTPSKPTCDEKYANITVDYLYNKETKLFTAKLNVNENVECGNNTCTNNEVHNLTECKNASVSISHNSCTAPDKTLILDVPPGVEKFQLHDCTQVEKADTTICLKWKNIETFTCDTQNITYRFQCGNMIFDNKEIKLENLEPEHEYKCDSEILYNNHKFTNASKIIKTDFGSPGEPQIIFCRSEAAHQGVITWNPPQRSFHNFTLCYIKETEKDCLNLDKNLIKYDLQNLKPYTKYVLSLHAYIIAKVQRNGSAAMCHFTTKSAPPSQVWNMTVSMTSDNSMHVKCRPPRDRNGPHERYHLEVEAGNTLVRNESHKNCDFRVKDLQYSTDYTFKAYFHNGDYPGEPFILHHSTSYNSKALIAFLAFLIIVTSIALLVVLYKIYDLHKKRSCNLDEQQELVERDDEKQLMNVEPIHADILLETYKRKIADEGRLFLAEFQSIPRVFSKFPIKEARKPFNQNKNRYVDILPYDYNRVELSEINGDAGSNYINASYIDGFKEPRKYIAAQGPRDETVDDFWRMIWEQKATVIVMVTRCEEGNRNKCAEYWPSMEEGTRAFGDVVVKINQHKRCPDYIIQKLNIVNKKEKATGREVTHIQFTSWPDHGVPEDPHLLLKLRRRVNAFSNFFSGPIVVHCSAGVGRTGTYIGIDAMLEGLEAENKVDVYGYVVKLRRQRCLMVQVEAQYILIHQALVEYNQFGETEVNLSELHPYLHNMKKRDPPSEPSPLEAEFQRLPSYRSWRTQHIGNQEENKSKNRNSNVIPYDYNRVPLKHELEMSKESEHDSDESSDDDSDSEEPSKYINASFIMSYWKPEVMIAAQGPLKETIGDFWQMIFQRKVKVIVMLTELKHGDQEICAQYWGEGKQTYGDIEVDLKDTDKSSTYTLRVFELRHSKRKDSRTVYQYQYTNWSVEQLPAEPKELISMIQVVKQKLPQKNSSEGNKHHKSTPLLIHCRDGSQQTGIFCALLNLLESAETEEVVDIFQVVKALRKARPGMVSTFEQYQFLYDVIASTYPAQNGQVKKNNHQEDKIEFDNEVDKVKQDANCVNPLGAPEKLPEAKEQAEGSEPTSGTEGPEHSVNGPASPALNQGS
Description: cell-based or functional assay.

Assay [2] concerns the target T1, human CD45RC. Description: flow cytometry on T cells of human PBMC; biotin anti-human IgG + streptavidin PerCP-Cy5.5. (In general: Flow cytometry measures light scatter and fluorescence of single cells or particles in a stream.)
The target in assay [3] is T2, human CD45RC in solubilized cell membranes (CD45RC^high PBMCs or CHO cells expressing CD45RC) (human, UniProt P08575 26-1306).
T2 sequence: T1 sequence
Description: SPR (BIAcore 3000 / T200), ABIS-45RC immobilized on CM5 chip, solubilized cell membranes as analyte, 25 °C, single cycle kinetics and calibration free concentration analysis. The text has this:
Briefly, 1×10⁷ CD45RC^high PBMCs or CHO cells expressing CD45RC after plasmid transfection were solubilized using the Mem-PER membrane isolation kit (Thermo-fisher).
For orientation: Surface plasmon resonance follows binding to a sensor surface in real time, without labels.

In the case of “Ctrl-CAR (control CAR having a different antigenic specificity) (receptor)”, in assay [1], the apoptosis of human T cells after 18 h with transduced Jurkat cells (annexin V / DAPI) lay within 7 to 8%.

B1: ABIS-45RC (antibody, mouse IgG1, kappa, V domains shown)
VH: QVQLQQSGAELVRPGTSVKMSCKAAGYTFTNYYIGWVKQRPGHGLEWIGDIFPGGDYANSNEKFKGKATLTADTSSSTAYMQLSSLTSEDSAIYYCVRRNFDYWGQGTTLTVSS
VL: QIVLTQSPTIMSASPGEKVTITCSASSSVSYMHWFQQKTGTSPRLWIYNTSNLPSGVPARFSGSGSGTSYSLTISRMEAEDAATYYCQQRSSYPLTFGAGTKLELKR
notes: also called murine ABIS-45RC; ABIS-CD45RC
For orientation: Kd means the equilibrium constant for the complex coming apart. A low value points to tighter binding. As a reminder, the koff is the rate constant with which the complex falls apart. A high value points to fast dissociation. The term kon denotes the rate constant with which the complex forms. Low values mean slow association, high ones fast association. Regarding B1, in assay [2], the “% of T cells in the CD45RC gate at 1 µg/mL” value stood at 61.3% and the “% of T cells in the CD45RC gate at 2 µg/mL” value turned out to be 61.1%. Moreover, in assay [3], the Kd was 50 nM, the koff amounted to 0.0144 s⁻¹ and the kon came out at 291000 M⁻¹ s⁻¹.
